Numbering of substitutions follows the chain as printed. Square brackets hold non-standard residues; d marks the D form. GABA = NCCCC(=O)O
Tests used:
Assay in all cases: positional peptide library pulldown on immobilised Nb, LC-MS of supernatant; signal ratio to control GFP-Nb (1 = not captured, near 0 = captured)
BC2T A5D = biological target: T1, BC2T A5D
T1 construct: positional scanning library member
T1 peptide: Ac-PDRKDAVSHWQQ-NH2
In short: (§1)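 Unbound peptide left in supernatant after 1 h pulldown in PBS/0.01% CHAPS measured by reversed-phase LC-MS (8–30% eluent B gradient, 20 min).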

BC2T V7N = biological target: T2, BC2T V7N
T2 construct: positional scanning library member
T2 peptide: Ac-PDRKAANSHWQQ-NH2
In short: as §1

BC2T D2F = biological target: T3, BC2T D2F
T3 construct: positional scanning library member
T3 peptide: Ac-PFRKAAVSHWQQ-NH2
In short: as §1

BC2T V7C(Abu) = biological target: T4, BC2T V7C(Abu) (also: Abu described as gamma-amino butyric acid)
T4 construct: positional scanning library member
T4 peptide: Ac-PDRKAA[GABA]SHWQQ-NH2
In short: as §1

BC2T K4S = biological target: T5, BC2T K4S
T5 construct: positional scanning library member
T5 peptide: Ac-PDRSAAVSHWQQ-NH2
In short: as §1

BC2T A5W = biological target: T6, BC2T A5W
T6 construct: positional scanning library member
T6 peptide: Ac-PDRKWAVSHWQQ-NH2
In short: as §1

BC2T R3D = biological target: T7, BC2T R3D
T7 construct: positional scanning library member
T7 peptide: Ac-PDDKAAVSHWQQ-NH2
In short: as §1

BC2T R3T = biological target: T8, BC2T R3T
T8 construct: positional scanning library member
T8 peptide: Ac-PDTKAAVSHWQQ-NH2
In short: as §1

BC2T D2C(Abu) = biological target: T9, BC2T D2C(Abu) (SMILES …)
T9 construct: positional scanning library member
T9 peptide: Ac-P[GABA]RKAAVSHWQQ-NH2
In short: as §1

BC2T A6E = biological target: T10, BC2T A6E
T10 construct: positional scanning library member
T10 peptide: Ac-PDRKAEVSHWQQ-NH2
In short: as §1

BC2T V7Y = biological target: T11, BC2T V7Y
T11 construct: positional scanning library member
T11 peptide: Ac-PDRKAAYSHWQQ-NH2
In short: as §1

BC2T V7Q = biological target: T12, BC2T V7Q
T12 construct: positional scanning library member
T12 peptide: Ac-PDRKAAQSHWQQ-NH2
In short: as §1

BC2T D2H = biological target: T13, BC2T D2H
T13 construct: positional scanning library member
T13 peptide: Ac-PHRKAAVSHWQQ-NH2
In short: as §1

BC2T V7K = biological target: T14, BC2T V7K
T14 construct: positional scanning library member
T14 peptide: Ac-PDRKAAKSHWQQ-NH2
In short: as §1

BC2T A5N = biological target: T15, BC2T A5N
T15 construct: positional scanning library member
T15 peptide: Ac-PDRKNAVSHWQQ-NH2
In short: as §1

BC2T A6C(Abu) = biological target: T16, BC2T A6C(Abu) (SMILES …)
T16 construct: positional scanning library member
T16 peptide: Ac-PDRKA[GABA]VSHWQQ-NH2
In short: as §1

BC2T V7S = biological target: T17, BC2T V7S
T17 construct: positional scanning library member
T17 peptide: Ac-PDRKAASSHWQQ-NH2
In short: as §1

BC2T A5H = biological target: T18, BC2T A5H
T18 construct: positional scanning library member
T18 peptide: Ac-PDRKHAVSHWQQ-NH2
In short: as §1

BC2T Q11D = biological target: T19, BC2T Q11D
T19 construct: positional scanning library member
T19 peptide: Ac-PDRKAAVSHWDQ-NH2
In short: as §1

BC2T Q12D = biological target: T20, BC2T Q12D
T20 construct: positional scanning library member
T20 peptide: Ac-PDRKAAVSHWQD-NH2
In short: as §1

BC2T Q12E = biological target: T21, BC2T Q12E
T21 construct: positional scanning library member
T21 peptide: Ac-PDRKAAVSHWQE-NH2
In short: as §1

B1: BC2-NbR106E (VHH)
VHH: QVQLVESGGGLVQPGGSLTLSCTASGFTLDHYDIGWFRQAPGKEREGVSCINNSDDDTYYADSVKGRFTIFMDNAKDTVYLQMNSLKPEDTAIYYCAEARGCKRGEYEYDFWGQGTQVTVSS
notes: headlock mutant of BC2-Nb; immobilised on beads in this assay
ratio (BC2T A5D): 0.9 | ratio (BC2T V7N): 0.4 | ratio (BC2T D2F): 0.2 | ratio (BC2T V7C(Abu)): 0.3 | ratio (BC2T K4S): 0.6 | ratio (BC2T A5W): 0 | ratio (BC2T R3D): 1 | ratio (BC2T R3T): 0.6 | ratio (BC2T D2C(Abu)): 0.2 | ratio (BC2T A6E): 1.1 | ratio (BC2T V7Y): 0.2 | ratio (BC2T V7Q): 0.4 | ratio (BC2T D2H): 0.1 | ratio (BC2T V7K): 0.1 | ratio (BC2T A5N): 0.3 | ratio (BC2T A6C(Abu)): 0.1 | ratio (BC2T V7S): 0.3 | ratio (BC2T A5H): 0.2

B2: BC2 nanobody (VHH)
VHH: B1 VHH with E106R
notes: immobilised on beads in this assay; also called BC2-Nb; BC2 nanotrap (immobilised)
ratio (BC2T Q11D): 0.2 | ratio (BC2T Q12D): 0.6 | ratio (BC2T Q12E): 0.4
